Measured values from patent US12552834 (MIT, dated 2026).
Where two headings read alike, the source gives them in different places.

Key:
[1] = target: T1, ENAH EVH1 domain (monomeric, wild type) (human, UniProt Q03173 1-111 (mouse entry)); experiment: BLI, steady state; SUMO-peptide immobilised, EVH1 monomer in solution
T1 construct: ENAH residue numbers in the text count from the Met at position 25 of this entry; also called ENAH EVH1 WT; Mena EVH1 WT
Description: (§1) All BLI experiments were performed with 2 replicates on an Octet Red96 instrument (ForteBio). […] The loaded tips were immersed in a solution of ENAH EVH1 domain at a relevant dilution series in BLI buffer at an orbital shake speed of 1000 rpm and run until the binding signal plateaued. ENAH-bound tips were subsequently placed into BLI buffer only for dissociation and run until the binding signal plateaued. K_D values were obtained through steady state analysis. […] The association phases were then fit to a one-phase binding model in Prism and the equilibrium steady-state binding signal values from that fit were plotted against ENAH concentration and fit to a single-site specific binding model in Prism to obtain dissociation constants. Errors reported are the standard deviation of two replicates.

[2] = target: T2, ENAH EVH1 domain with Arg47 mutated to Ala (human, UniProt Q03173 1-111 (mouse entry)); experiment: as above
T2 construct: also called ENAH R47A; ENAH EVH1 R47A
Description: as §1

[3] = target: T1, ENAH EVH1 domain (monomeric, wild type); experiment: as above; remark: listed apart in the source
Description: as §1

[4] = target: T1, ENAH EVH1 domain (monomeric, wild type); experiment: BLI
Description: as §1

[5] = target: T1, ENAH EVH1 domain (monomeric, wild type); experiment: BLI, steady state; SUMO-peptide immobilised, EVH1 monomer in solution; remark: listed apart in the source
Description: as §1

[6] = target: T2, ENAH EVH1 domain with Arg47 mutated to …; experiment: as above; remark: listed apart in the source
Description: as §1

[7] = target: T1, ENAH EVH1 domain (monomeric, wild type); experiment: as above; remark: listed apart in the source
Description: as §1

T1 sequence (Q03173 other isoform, or with tags, fused parts or gaps limits assumed): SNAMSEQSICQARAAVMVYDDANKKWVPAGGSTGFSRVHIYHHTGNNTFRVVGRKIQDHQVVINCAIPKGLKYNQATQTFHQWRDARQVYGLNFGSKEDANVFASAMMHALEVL
T2 sequence (Q03173 other isoform, or with tags, fused parts or gaps limits assumed, stated change not applied): as the sequence (Q03173 other isoform, or with tags, fused parts or gaps limits assumed) above, with R50A counted along it

Row | Binder | Kd [1] [µM] | Kd [2] [µM] | Kd [3] [µM] | further results
1 | Minimum General peptide (biotinylated (BAP tag), Engineered peptide, tested as a SUMO fusion) peptide: MAGGLNDIFEAQKIEWHEDTGGSSHHHHHHGSGSGSDSEVNQEAKPEVKPEVKPETHINLKVSDGSSEIFFKIKKTTPLRRLMEAFAKRQGKEMDSLTFLYDGIEIQADQTPEDLDMEDNDIIEAHREQIGGSGSGDFLPPPPGGGGGGSGSGGGSGSFPPPPGG | 92.6 | 86.9 | – | –
2 | TJAP1 36-mer peptide (biotinylated (BAP tag), Tested as a biotinylated BAP-6xHis-SUMO-peptide fusion) peptide: MAGGLNDIFEAQKIEWHEDTGGSSHHHHHHGSGSGSDSEVNQEAKPEVKPEVKPETHINLKVSDGSSEIFFKIKKTTPLRRLMEAFAKRQGKEMDSLTFLYDGIEIQADQTPEDLDMEDNDIIEAHREQIGGSGSGPEEELPLPAFEKLNPYPTPSPPHPLYPGRRVIEFSE | – | – | 23.9 | –
3 | LPP Minimal peptide (biotinylated (BAP tag), Engineered variant, tested as a SUMO fusion) peptide: MAGGLNDIFEAQKIEWHEDTGGSSHHHHHHGSGSGSDSEVNQEAKPEVKPEVKPETHINLKVSDGSSEIFFKIKKTTPLRRLMEAFAKRQGKEMDSLTFLYDGIEIQADQTPEDLDMEDNDIIEAHREQIGGSGSGGDFLPPPPPPLGGGSGSGGGSGSFPPPPPL | 15.8 | 124 | – | fold reduction in affinity relative to the LPP 36-mer [4]: ~4 fold
4 | PCARE 36-residue peptide (PCARE813-848) (biotinylated (BAP tag), Tested in BLI as a biotinylated BAP-6xHis-SUMO-peptide fusion; also called PCARE 36-mer) peptide: MAGGLNDIFEAQKIEWHEDTGGSSHHHHHHGSGSGSDSEVNQEAKPEVKPEVKPETHINLKVSDGSSEIFFKIKKTTPLRRLMEAFAKRQGKEMDSLTFLYDGIEIQADQTPEDLDMEDNDIIEAHREQIGGSGSGAAKSEELSCEMEGNLEHLPPPPMEVLMDKSFASLES | – | – | 0.192 | Kd [5]: 0.192 µM; Kd [6]: 0.331 µM
5 | NHSL1 FP4 2 peptide (biotinylated (BAP tag), Truncation of the NHSL1 36mer that keeps the second FP4 motif, tested as a SUMO fusion) peptide: MAGGLNDIFEAQKIEWHEDTGGSSHHHHHHGSGSGSDSEVNQEAKPEVKPEVKPETHINLKVSDGSSEIFFKIKKTTPLRRLMEAFAKRQGKEMDSLTFLYDGIEIQADQTPEDLDMEDNDIIEAHREQIGGSGSGPVTDCSQGSPLPHSPVFPPPPPEAL | 24.4 | 51 | – | –
6 | LPP FP4 2 peptide (biotinylated (BAP tag), Truncation of the LPP 36mer that keeps the second FP4 motif, tested as a SUMO fusion) peptide: MAGGLNDIFEAQKIEWHEDTGGSSHHHHHHGSGSGSDSEVNQEAKPEVKPEVKPETHINLKVSDGSSEIFFKIKKTTPLRRLMEAFAKRQGKEMDSLTFLYDGIEIQADQTPEDLDMEDNDIIEAHREQIGGSGSGPPLDDSSALPSISGNFPPPPPL | 28.3 | 75.2 | – | –
7 | FDDFP8 peptide (biotinylated (BAP tag), ABI1 truncation, tested as a SUMO fusion) peptide: MAGGLNDIFEAQKIEWHEDTGGSSHHHHHHGSGSGSDSEVNQEAKPEVKPEVKPETHINLKVSDGSSEIFFKIKKTTPLRRLMEAFAKRQGKEMDSLTFLYDGIEIQADQTPEDLDMEDNDIIEAHREQIGGSGSGFDDFPPPPPPPP | – | – | – | fold decrease in affinity on truncation of the flank [4]: 2.5 fold; Kd [7]: 10.1 µM
8 | NHSL1 FP4 1 peptide (biotinylated (BAP tag), Truncation of the NHSL1 36mer that keeps the first FP4 motif, tested as a SUMO fusion) peptide: MAGGLNDIFEAQKIEWHEDTGGSSHHHHHHGSGSGSDSEVNQEAKPEVKPEVKPETHINLKVSDGSSEIFFKIKKTTPLRRLMEAFAKRQGKEMDSLTFLYDGIEIQADQTPEDLDMEDNDIIEAHREQIGGSGSGADRSPFLPPPPPVTDCSQGSPLPHSPV | 48.7 | 99.1 | – | –
9 | SHROOM3 36-mer peptide (biotinylated (BAP tag), Tested as a biotinylated BAP-6xHis-SUMO-peptide fusion) peptide: MAGGLNDIFEAQKIEWHEDTGGSSHHHHHHGSGSGSDSEVNQEAKPEVKPEVKPETHINLKVSDGSSEIFFKIKKTTPLRRLMEAFAKRQGKEMDSLTFLYDGIEIQADQTPEDLDMEDNDIIEAHREQIGGSGSGVYSMDDFPPPPPHTVCEAQLDSEDPEGPRPSFNKLS | – | – | 9.3 | –
10 | FP8 peptide (FPPPPPPPP) (biotinylated (BAP tag), ABI1 truncation, tested as a SUMO fusion) peptide: MAGGLNDIFEAQKIEWHEDTGGSSHHHHHHGSGSGSDSEVNQEAKPEVKPEVKPETHINLKVSDGSSEIFFKIKKTTPLRRLMEAFAKRQGKEMDSLTFLYDGIEIQADQTPEDLDMEDNDIIEAHREQIGGSGSGFPPPPPPPP | – | – | – | fold decrease in affinity on truncation of the flank [4]: 3 fold; Kd [7]: 28.5 µM
11 | FP4S4 peptide (FPPPPSSSS) (biotinylated (BAP tag), Tested as a SUMO fusion) peptide: MAGGLNDIFEAQKIEWHEDTGGSSHHHHHHGSGSGSDSEVNQEAKPEVKPEVKPETHINLKVSDGSSEIFFKIKKTTPLRRLMEAFAKRQGKEMDSLTFLYDGIEIQADQTPEDLDMEDNDIIEAHREQIGGSGSGFPPPPSSSS | – | – | – | fold reduction in affinity against … [4]: ~4 fold; Kd [7]: 114 µM
12 | TNK2 36-mer peptide (biotinylated (BAP tag), Tested as a biotinylated BAP-6xHis-SUMO-peptide fusion) peptide: MAGGLNDIFEAQKIEWHEDTGGSSHHHHHHGSGSGSDSEVNQEAKPEVKPEVKPETHINLKVSDGSSEIFFKIKKTTPLRRLMEAFAKRQGKEMDSLTFLYDGIEIQADQTPEDLDMEDNDIIEAHREQIGGSGSGTPVVDWDARPLPPPPAYDDVAQDEDDFEICSINSTL | – | – | 21.2 | –
13 | ABI1 a peptide (biotinylated (BAP tag), ABI1 truncation, tested as a SUMO fusion) peptide: MAGGLNDIFEAQKIEWHEDTGGSSHHHHHHGSGSGSDSEVNQEAKPEVKPEVKPETHINLKVSDGSSEIFFKIKKTTPLRRLMEAFAKRQGKEMDSLTFLYDGIEIQADQTPEDLDMEDNDIIEAHREQIGGSGSGFDDFPPPPPPPPVDYED | – | – | – | Kd [7]: 5.21 µM
14 | Zyxin 36-mer peptide (biotinylated (BAP tag), Tested as a biotinylated BAP-6xHis-SUMO-peptide fusion) peptide: MAGGLNDIFEAQKIEWHEDTGGSSHHHHHHGSGSGSDSEVNQEAKPEVKPEVKPETHINLKVSDGSSEIFFKIKKTTPLRRLMEAFAKRQGKEMDSLTFLYDGIEIQADQTPEDLDMEDNDIIEAHREQIGGSGSGALGGAFPPPPPPIEESFPPAPLEEEIFPSPPPPPEE | – | – | 4.79 | Kd [5]: 4.79 µM; Kd [6]: 54.5 µM
15 | FHOD1 peptide (biotinylated (BAP tag), Tested as a biotinylated BAP-6xHis-SUMO-peptide fusion) peptide: MAGGLNDIFEAQKIEWHEDTGGSSHHHHHHGSGSGSDSEVNQEAKPEVKPEVKPETHINLKVSDGSSEIFFKIKKTTPLRRLMEAFAKRQGKEMDSLTFLYDGIEIQADQTPEDLDMEDNDIIEAHREQIGGSGSGSVPPPPPLPPPPPIKGPFPPPPPLPLAAPLPHSVPD | – | – | 50.4 | –
16 | SYNPO2 36-mer peptide (biotinylated (BAP tag), Tested as a biotinylated BAP-6xHis-SUMO-peptide fusion) peptide: MAGGLNDIFEAQKIEWHEDTGGSSHHHHHHGSGSGSDSEVNQEAKPEVKPEVKPETHINLKVSDGSSEIFFKIKKTTPLRRLMEAFAKRQGKEMDSLTFLYDGIEIQADQTPEDLDMEDNDIIEAHREQIGGSGSGKSPIADFPAPPPYSAVTPPPDAFSRGVSSPIAGPAQ | – | – | 52.1 | –
17 | NHSL1 Duplicated peptide (biotinylated (BAP tag), Engineered variant, tested as a SUMO fusion) peptide: MAGGLNDIFEAQKIEWHEDTGGSSHHHHHHGSGSGSDSEVNQEAKPEVKPEVKPETHINLKVSDGSSEIFFKIKKTTPLRRLMEAFAKRQGKEMDSLTFLYDGIEIQADQTPEDLDMEDNDIIEAHREQIGGSGSGADRSPFLPPPPPVTDCSQGSPLPHSPVPVTDCSQGSPLPHSPVFPPPPPEAL | 18.4 | 70 | – | –
18 | NUTM2E 36-mer peptide (biotinylated (BAP tag), Tested as a biotinylated BAP-6xHis-SUMO-peptide fusion) peptide: MAGGLNDIFEAQKIEWHEDTGGSSHHHHHHGSGSGSDSEVNQEAKPEVKPEVKPETHINLKVSDGSSEIFFKIKKTTPLRRLMEAFAKRQGKEMDSLTFLYDGIEIQADQTPEDLDMEDNDIIEAHREQIGGSGSGVVPVMAAQVVGGTQACEGGWSQGLPLPPPPPPAAQL | – | – | 33.9 | –
19 | LPP Duplicated peptide (biotinylated (BAP tag), Engineered variant, tested as a SUMO fusion) peptide: MAGGLNDIFEAQKIEWHEDTGGSSHHHHHHGSGSGSDSEVNQEAKPEVKPEVKPETHINLKVSDGSSEIFFKIKKTTPLRRLMEAFAKRQGKEMDSLTFLYDGIEIQADQTPEDLDMEDNDIIEAHREQIGGSGSGKQPGGEGDFLPPPPPPLDDSSALPSISGNDDSSALPSISGNFPPPPPL | 6.66 | 54.2 | – | –
20 | LPP FP4 1 peptide (biotinylated (BAP tag), Truncation of the LPP 36mer that keeps the first FP4 motif, tested as a SUMO fusion) peptide: MAGGLNDIFEAQKIEWHEDTGGSSHHHHHHGSGSGSDSEVNQEAKPEVKPEVKPETHINLKVSDGSSEIFFKIKKTTPLRRLMEAFAKRQGKEMDSLTFLYDGIEIQADQTPEDLDMEDNDIIEAHREQIGGSGSGKQPGGEGDFLPPPPPPLDDSSALPSISGN | 12.4 | 61.3 | – | –
21 | FBLIM1 36-mer peptide (biotinylated (BAP tag), Tested as a biotinylated BAP-6xHis-SUMO-peptide fusion) peptide: MAGGLNDIFEAQKIEWHEDTGGSSHHHHHHGSGSGSDSEVNQEAKPEVKPEVKPETHINLKVSDGSSEIFFKIKKTTPLRRLMEAFAKRQGKEMDSLTFLYDGIEIQADQTPEDLDMEDNDIIEAHREQIGGSGSGPPVLDGEDVLPDLDLLPPPPPPPPVLLPSEEEAPAP | – | – | 16 | –
22 | FYB1 36-mer peptide (biotinylated (BAP tag), Tested as a biotinylated BAP-6xHis-SUMO-peptide fusion) peptide: MAGGLNDIFEAQKIEWHEDTGGSSHHHHHHGSGSGSDSEVNQEAKPEVKPEVKPETHINLKVSDGSSEIFFKIKKTTPLRRLMEAFAKRQGKEMDSLTFLYDGIEIQADQTPEDLDMEDNDIIEAHREQIGGSGSGSGSGGIFPPPPDDDIYDGIEEEDADDGFPAPPKQLD | – | – | 24.3 | –
23 | KIAA1522 36-mer peptide (biotinylated (BAP tag), Tested as a biotinylated BAP-6xHis-SUMO-peptide fusion; also called KIAAA1522) peptide: MAGGLNDIFEAQKIEWHEDTGGSSHHHHHHGSGSGSDSEVNQEAKPEVKPEVKPETHINLKVSDGSSEIFFKIKKTTPLRRLMEAFAKRQGKEMDSLTFLYDGIEIQADQTPEDLDMEDNDIIEAHREQIGGSGSGPPAPEEQDLSMADFPPPEEAFFSVASPEPAGPSGSP | – | – | 14 | –
24 | ABI3 36-mer peptide (biotinylated (BAP tag), Tested as a biotinylated BAP-6xHis-SUMO-peptide fusion) peptide: MAGGLNDIFEAQKIEWHEDTGGSSHHHHHHGSGSGSDSEVNQEAKPEVKPEVKPETHINLKVSDGSSEIFFKIKKTTPLRRLMEAFAKRQGKEMDSLTFLYDGIEIQADQTPEDLDMEDNDIIEAHREQIGGSGSGSPPPPDEELPLPLDLPPPPPLDGDELGLPPPPPGFG | – | – | 13.6 | –
